Like-named read-outs stand apart in the source and are kept apart here.

In test [1] the target is Radiolabeled FabA (3H-labeled FabA) (rabbit).
Test [2] deals with FabA (rabbit Fab with the anti-HSA nanobody ALB8 fused to the C-terminus of the heavy chain) (rabbit). Nature of the test: SPR; Fab captured by its His6 tag on an immobilised anti-His antibody (CM3 chip, about 15 RU); albumin 22.2-1800 nM injected; HBS-P+ (10 mM HEPES, 150 mM NaCl, pH 7.4, 0.05% P20), 25 °C; Langmuir 1:1 model.
Test [3] has as its target Radiolabeled FabA (3H-labeled FabA) (rabbit). The description is as above.
Test [4] has as its target FabA (rabbit Fab with the anti-HSA nanobody ALB8 fused to the C-terminus of the heavy chain) (rabbit). The test is described as above. This is another data set of the same source.
The target in test [5] is Radiolabeled FabA (3H-labeled FabA) (rabbit). Nature of the test: SEC; radio-SEC; 3H-FabA (0.57 or 5.7 µM) incubated in cynomolgus monkey vitreous humor at endogenous albumin (0.53 µM), 37 °C.
Test [6] shares this target. Nature of the test: SEC; radio-SEC; 3H-FabA (0.57 or 5.7 µM) incubated in cynomolgus monkey vitreous humor supplemented with 50, 100 and 250 µM CSA, 37 °C.
Test [7] shares this target. Kind of test: SEC; radio-SEC of dosing formulations, 3H-FabA with equimolar albumin; 100 mM sodium phosphate pH 7.4, 10% ethanol.

In the case of “Human serum albumin (from UniProt P02768 25-609) (natural protein)”, the vitreous humor exposure (AUCinf) of 3H-FabA in rabbits after intravitreal injection of 0.05 mg co-formulated with 1 or 15 nmol HSA (104 and 230 h∙nmol/mL; FabB control with 1 nmol HSA 72.8) in test [1] was found to be 230 nmol·h/mL. Further, the vitreous humor half-life (t1/2) of 3H-FabA in rabbits after intravitreal injection of 0.05 mg co-formulated with 1 or 15 nmol HSA (58.0 and 149 h; FabB control with 1 nmol HSA 52.1 h) in test [1] was determined as 149 h. In addition, the Kd was determined as 99 nM in test [2], 97 nM in test [3] and 55 nM in test [4].
For the substance “Cynomolgus serum albumin (from UniProt A2V9Z4 25-608) (natural protein)”, the stoichiometry N in test [5] turned out to be 1. In addition, the stoichiometry N in test [6] is 2. In test [7], this substance gave a stoichiometry N of 1. In test [4], this substance came in with a Kd of 66 nM, a koff of 0.0065 s⁻¹ and a kon of 99000 M⁻¹ s⁻¹.

Source of the values: publication PMC7559355.
